# Assay results as given in patent publication US20090291890A1 (published 2009).
# Target: Factor X (FX) (Homo sapiens (Human)) (UniProt P00742)
# Sequence (P00742 41-488 limits assumed): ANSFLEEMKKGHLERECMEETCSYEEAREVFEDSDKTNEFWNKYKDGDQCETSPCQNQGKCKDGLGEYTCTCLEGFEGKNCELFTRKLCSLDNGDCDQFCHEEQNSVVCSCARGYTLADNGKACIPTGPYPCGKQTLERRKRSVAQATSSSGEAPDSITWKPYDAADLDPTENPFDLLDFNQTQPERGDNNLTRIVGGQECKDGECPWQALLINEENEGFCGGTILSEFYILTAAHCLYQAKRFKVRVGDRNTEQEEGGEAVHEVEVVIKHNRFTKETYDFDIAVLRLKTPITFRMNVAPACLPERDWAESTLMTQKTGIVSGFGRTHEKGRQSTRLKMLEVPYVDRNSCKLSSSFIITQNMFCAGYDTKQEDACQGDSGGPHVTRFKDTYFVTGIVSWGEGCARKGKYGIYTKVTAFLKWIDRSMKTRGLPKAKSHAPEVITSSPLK
row,"kcat/KM, TF-Dependent Indirect Assay [M⁻¹ s⁻¹]",Binder
1,1.27e+08,FVIIa variant Q286R/H257A (enzyme) ANAFLEELRPGSLERECKEEQCSFEEAREIFKDAERTKLFWISYSDGDQCASSPCQNGGSCKDQLQSYICFCLPAFEGRNCETHKDDQLICVNENGGCEQYCSDHTGTKRSCRCHEGYSLLADGVSCTPTVEYPCGKIPILEKRNASKPQGRIVGGKVCPKGECPWQVLLLVNGAQLCGGTLINTIWVVSAAHCFDKIKNWRNLIAVLGEHDLSEHDGDEQSRRVAQVIIPSTYVPGTTNHDIALLRLHQPVVLTDAVVPLCLPERTFSERTLAFVRFSLVSGWGRLLDRGATALELMVLNVPRLMTQDCLQQSRKVGDSPNITEYMFCAGYSDGSKDSCKGDSGGPHATHYRGTWYLTGIVSWGQGCATVGHFGVYTRVSQYIEWLQKLMRSEPRPGVLLRAPFP
2,7.74e+07,FVIIa variant Q286R/M298Q/K199E (enzyme) ANAFLEELRPGSLERECKEEQCSFEEAREIFKDAERTKLFWISYSDGDQCASSPCQNGGSCKDQLQSYICFCLPAFEGRNCETHKDDQLICVNENGGCEQYCSDHTGTKRSCRCHEGYSLLADGVSCTPTVEYPCGKIPILEKRNASKPQGRIVGGKVCPKGECPWQVLLLVNGAQLCGGTLINTIWVVSAAHCFDKIENWRNLIAVLGEHDLSEHDGDEQSRRVAQVIIPSTYVPGTTNHDIALLRLHQPVVLTDHVVPLCLPERTFSERTLAFVRFSLVSGWGRLLDRGATALELQVLNVPRLMTQDCLQQSRKVGDSPNITEYMFCAGYSDGSKDSCKGDSGGPHATHYRGTWYLTGIVSWGQGCATVGHFGVYTRVSQYIEWLQKLMRSEPRPGVLLRAPFP
3,1.74e+07,FVIIa variant T239Q (enzyme) ANAFLEELRPGSLERECKEEQCSFEEAREIFKDAERTKLFWISYSDGDQCASSPCQNGGSCKDQLQSYICFCLPAFEGRNCETHKDDQLICVNENGGCEQYCSDHTGTKRSCRCHEGYSLLADGVSCTPTVEYPCGKIPILEKRNASKPQGRIVGGKVCPKGECPWQVLLLVNGAQLCGGTLINTIWVVSAAHCFDKIKNWRNLIAVLGEHDLSEHDGDEQSRRVAQVIIPSTYVPGTQNHDIALLRLHQPVVLTDHVVPLCLPERTFSERTLAFVRFSLVSGWGQLLDRGATALELMVLNVPRLMTQDCLQQSRKVGDSPNITEYMFCAGYSDGSKDSCKGDSGGPHATHYRGTWYLTGIVSWGQGCATVGHFGVYTRVSQYIEWLQKLMRSEPRPGVLLRAPFP
4,1.42e+08,FVIIa variant Q286R/S222A (enzyme) ANAFLEELRPGSLERECKEEQCSFEEAREIFKDAERTKLFWISYSDGDQCASSPCQNGGSCKDQLQSYICFCLPAFEGRNCETHKDDQLICVNENGGCEQYCSDHTGTKRSCRCHEGYSLLADGVSCTPTVEYPCGKIPILEKRNASKPQGRIVGGKVCPKGECPWQVLLLVNGAQLCGGTLINTIWVVSAAHCFDKIKNWRNLIAVLGEHDLSEHDGDEQARRVAQVIIPSTYVPGTTNHDIALLRLHQPVVLTDHVVPLCLPERTFSERTLAFVRFSLVSGWGRLLDRGATALELMVLNVPRLMTQDCLQQSRKVGDSPNITEYMFCAGYSDGSKDSCKGDSGGPHATHYRGTWYLTGIVSWGQGCATVGHFGVYTRVSQYIEWLQKLMRSEPRPGVLLRAPFP
5,9.51e+07,FVIIa variant Q286R/S222A/H257A (enzyme) ANAFLEELRPGSLERECKEEQCSFEEAREIFKDAERTKLFWISYSDGDQCASSPCQNGGSCKDQLQSYICFCLPAFEGRNCETHKDDQLICVNENGGCEQYCSDHTGTKRSCRCHEGYSLLADGVSCTPTVEYPCGKIPILEKRNASKPQGRIVGGKVCPKGECPWQVLLLVNGAQLCGGTLINTIWVVSAAHCFDKIKNWRNLIAVLGEHDLSEHDGDEQARRVAQVIIPSTYVPGTTNHDIALLRLHQPVVLTDAVVPLCLPERTFSERTLAFVRFSLVSGWGRLLDRGATALELMVLNVPRLMTQDCLQQSRKVGDSPNITEYMFCAGYSDGSKDSCKGDSGGPHATHYRGTWYLTGIVSWGQGCATVGHFGVYTRVSQYIEWLQKLMRSEPRPGVLLRAPFP
6,3.93e+07,FVIIa variant Q286R/M298Q/K341Q (enzyme) ANAFLEELRPGSLERECKEEQCSFEEAREIFKDAERTKLFWISYSDGDQCASSPCQNGGSCKDQLQSYICFCLPAFEGRNCETHKDDQLICVNENGGCEQYCSDHTGTKRSCRCHEGYSLLADGVSCTPTVEYPCGKIPILEKRNASKPQGRIVGGKVCPKGECPWQVLLLVNGAQLCGGTLINTIWVVSAAHCFDKIKNWRNLIAVLGEHDLSEHDGDEQSRRVAQVIIPSTYVPGTTNHDIALLRLHQPVVLTDHVVPLCLPERTFSERTLAFVRFSLVSGWGRLLDRGATALELQVLNVPRLMTQDCLQQSRKVGDSPNITEYMFCAGYSDGSKDSCQGDSGGPHATHYRGTWYLTGIVSWGQGCATVGHFGVYTRVSQYIEWLQKLMRSEPRPGVLLRAPFP
7,1.74e+07,FVIIa variant T239S (enzyme) ANAFLEELRPGSLERECKEEQCSFEEAREIFKDAERTKLFWISYSDGDQCASSPCQNGGSCKDQLQSYICFCLPAFEGRNCETHKDDQLICVNENGGCEQYCSDHTGTKRSCRCHEGYSLLADGVSCTPTVEYPCGKIPILEKRNASKPQGRIVGGKVCPKGECPWQVLLLVNGAQLCGGTLINTIWVVSAAHCFDKIKNWRNLIAVLGEHDLSEHDGDEQSRRVAQVIIPSTYVPGTSNHDIALLRLHQPVVLTDHVVPLCLPERTFSERTLAFVRFSLVSGWGQLLDRGATALELMVLNVPRLMTQDCLQQSRKVGDSPNITEYMFCAGYSDGSKDSCKGDSGGPHATHYRGTWYLTGIVSWGQGCATVGHFGVYTRVSQYIEWLQKLMRSEPRPGVLLRAPFP
8,9.57e+07,FVIIa variant T239V (enzyme) ANAFLEELRPGSLERECKEEQCSFEEAREIFKDAERTKLFWISYSDGDQCASSPCQNGGSCKDQLQSYICFCLPAFEGRNCETHKDDQLICVNENGGCEQYCSDHTGTKRSCRCHEGYSLLADGVSCTPTVEYPCGKIPILEKRNASKPQGRIVGGKVCPKGECPWQVLLLVNGAQLCGGTLINTIWVVSAAHCFDKIKNWRNLIAVLGEHDLSEHDGDEQSRRVAQVIIPSTYVPGTVNHDIALLRLHQPVVLTDHVVPLCLPERTFSERTLAFVRFSLVSGWGQLLDRGATALELMVLNVPRLMTQDCLQQSRKVGDSPNITEYMFCAGYSDGSKDSCKGDSGGPHATHYRGTWYLTGIVSWGQGCATVGHFGVYTRVSQYIEWLQKLMRSEPRPGVLLRAPFP
9,6.45e+07,FVIIa variant H257A/Gla Swap FIX (enzyme) YNSGKLEEFVQGNLERECMEEKCSFEEAREVFENTERTTEFWKQYSDGDQCASSPCQNGGSCKDQLQSYICFCLPAFEGRNCETHKDDQLICVNENGGCEQYCSDHTGTKRSCRCHEGYSLLADGVSCTPTVEYPCGKIPILEKRNASKPQGRIVGGKVCPKGECPWQVLLLVNGAQLCGGTLINTIWVVSAAHCFDKIKNWRNLIAVLGEHDLSEHDGDEQSRRVAQVIIPSTYVPGTTNHDIALLRLHQPVVLTDAVVPLCLPERTFSERTLAFVRFSLVSGWGQLLDRGATALELMVLNVPRLMTQDCLQQSRKVGDSPNITEYMFCAGYSDGSKDSCKGDSGGPHATHYRGTWYLTGIVSWGQGCATVGHFGVYTRVSQYIEWLQKLMRSEPRPGVLLRAPFP
10,5.77e+07,FVIIa variant S222A/H257A/Gla Swap FIX (enzyme) YNSGKLEEFVQGNLERECMEEKCSFEEAREVFENTERTTEFWKQYSDGDQCASSPCQNGGSCKDQLQSYICFCLPAFEGRNCETHKDDQLICVNENGGCEQYCSDHTGTKRSCRCHEGYSLLADGVSCTPTVEYPCGKIPILEKRNASKPQGRIVGGKVCPKGECPWQVLLLVNGAQLCGGTLINTIWVVSAAHCFDKIKNWRNLIAVLGEHDLSEHDGDEQARRVAQVIIPSTYVPGTTNHDIALLRLHQPVVLTDAVVPLCLPERTFSERTLAFVRFSLVSGWGQLLDRGATALELMVLNVPRLMTQDCLQQSRKVGDSPNITEYMFCAGYSDGSKDSCKGDSGGPHATHYRGTWYLTGIVSWGQGCATVGHFGVYTRVSQYIEWLQKLMRSEPRPGVLLRAPFP
11,1.61e+08,FVIIa variant Q286R/S222A/Gla Swap FIX (enzyme) YNSGKLEEFVQGNLERECMEEKCSFEEAREVFENTERTTEFWKQYSDGDQCASSPCQNGGSCKDQLQSYICFCLPAFEGRNCETHKDDQLICVNENGGCEQYCSDHTGTKRSCRCHEGYSLLADGVSCTPTVEYPCGKIPILEKRNASKPQGRIVGGKVCPKGECPWQVLLLVNGAQLCGGTLINTIWVVSAAHCFDKIKNWRNLIAVLGEHDLSEHDGDEQARRVAQVIIPSTYVPGTTNHDIALLRLHQPVVLTDHVVPLCLPERTFSERTLAFVRFSLVSGWGRLLDRGATALELMVLNVPRLMTQDCLQQSRKVGDSPNITEYMFCAGYSDGSKDSCKGDSGGPHATHYRGTWYLTGIVSWGQGCATVGHFGVYTRVSQYIEWLQKLMRSEPRPGVLLRAPFP
12,7.75e+07,FVIIa variant Q286R/S222A/H257A/Gla Swap FIX (enzyme) YNSGKLEEFVQGNLERECMEEKCSFEEAREVFENTERTTEFWKQYSDGDQCASSPCQNGGSCKDQLQSYICFCLPAFEGRNCETHKDDQLICVNENGGCEQYCSDHTGTKRSCRCHEGYSLLADGVSCTPTVEYPCGKIPILEKRNASKPQGRIVGGKVCPKGECPWQVLLLVNGAQLCGGTLINTIWVVSAAHCFDKIKNWRNLIAVLGEHDLSEHDGDEQARRVAQVIIPSTYVPGTTNHDIALLRLHQPVVLTDAVVPLCLPERTFSERTLAFVRFSLVSGWGRLLDRGATALELMVLNVPRLMTQDCLQQSRKVGDSPNITEYMFCAGYSDGSKDSCKGDSGGPHATHYRGTWYLTGIVSWGQGCATVGHFGVYTRVSQYIEWLQKLMRSEPRPGVLLRAPFP
13,8.09e+07,FVIIa variant Q286R/H257A/Gla Swap FIX (enzyme) YNSGKLEEFVQGNLERECMEEKCSFEEAREVFENTERTTEFWKQYSDGDQCASSPCQNGGSCKDQLQSYICFCLPAFEGRNCETHKDDQLICVNENGGCEQYCSDHTGTKRSCRCHEGYSLLADGVSCTPTVEYPCGKIPILEKRNASKPQGRIVGGKVCPKGECPWQVLLLVNGAQLCGGTLINTIWVVSAAHCFDKIKNWRNLIAVLGEHDLSEHDGDEQSRRVAQVIIPSTYVPGTTNHDIALLRLHQPVVLTDAVVPLCLPERTFSERTLAFVRFSLVSGWGRLLDRGATALELMVLNVPRLMTQDCLQQSRKVGDSPNITEYMFCAGYSDGSKDSCKGDSGGPHATHYRGTWYLTGIVSWGQGCATVGHFGVYTRVSQYIEWLQKLMRSEPRPGVLLRAPFP
14,1.11e+08,FVIIa variant Q286R/Gla Swap FIX (enzyme) YNSGKLEEFVQGNLERECMEEKCSFEEAREVFENTERTTEFWKQYSDGDQCASSPCQNGGSCKDQLQSYICFCLPAFEGRNCETHKDDQLICVNENGGCEQYCSDHTGTKRSCRCHEGYSLLADGVSCTPTVEYPCGKIPILEKRNASKPQGRIVGGKVCPKGECPWQVLLLVNGAQLCGGTLINTIWVVSAAHCFDKIKNWRNLIAVLGEHDLSEHDGDEQSRRVAQVIIPSTYVPGTTNHDIALLRLHQPVVLTDHVVPLCLPERTFSERTLAFVRFSLVSGWGRLLDRGATALELMVLNVPRLMTQDCLQQSRKVGDSPNITEYMFCAGYSDGSKDSCKGDSGGPHATHYRGTWYLTGIVSWGQGCATVGHFGVYTRVSQYIEWLQKLMRSEPRPGVLLRAPFP
